Assay results from US20170183403A1.

Biological target: T1, Reference peptide no. 48
T1 sequence (peptide): PKLTRMLTFKFAMPK
Test: peptide microarray (RepliTope), Ala mutagenesis set

NARA1 (antibody) was tested, and the signal intensity after subtraction of control signal was 6200 AU.
